The results in this text go back to article PMC9942953, “Merlin tumor suppressor function is regulated by PIP2-mediated dimerization” (PLOS ONE, 2023).

Data set [1] concerns the molecule itself. Nature of the data set: co-IP; HEK 293T co-transfected with a GFP fusion and a NanoLuc fusion; lysis in TBS, 2 mM MgCl2, 0.5% NP-40; GFP-Trap_MA; ratio of bound to unbound luciferase activity normalised to GFP fluorescence.
Data set [2] concerns the target T1, Merlin L64P, patient derived mutant, P35240.
T1 chain: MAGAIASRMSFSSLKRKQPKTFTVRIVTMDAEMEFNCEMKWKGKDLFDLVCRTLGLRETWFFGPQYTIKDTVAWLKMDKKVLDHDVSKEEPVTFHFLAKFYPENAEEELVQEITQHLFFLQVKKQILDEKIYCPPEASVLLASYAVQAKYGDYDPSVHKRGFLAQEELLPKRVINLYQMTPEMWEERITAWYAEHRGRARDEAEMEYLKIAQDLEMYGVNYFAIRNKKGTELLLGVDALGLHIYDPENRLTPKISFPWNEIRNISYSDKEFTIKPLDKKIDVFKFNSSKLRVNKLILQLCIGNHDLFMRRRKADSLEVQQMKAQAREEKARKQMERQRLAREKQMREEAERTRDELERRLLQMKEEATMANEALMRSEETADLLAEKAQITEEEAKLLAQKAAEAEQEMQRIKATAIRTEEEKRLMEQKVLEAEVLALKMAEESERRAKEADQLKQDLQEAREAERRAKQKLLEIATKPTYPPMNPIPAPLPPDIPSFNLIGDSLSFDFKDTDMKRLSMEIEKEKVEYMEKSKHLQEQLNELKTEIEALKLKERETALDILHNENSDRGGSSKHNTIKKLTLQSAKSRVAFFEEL
The description is as above. To be noted: remark: other sources report otherwise.

B1: Merlin ΔN18, deletion of the N-terminal 18 amino acids (domain or fragment, UniProt P35240 19-595, looked up)
chain: PKTFTVRIVTMDAEMEFNCEMKWKGKDLFDLVCRTLGLRETWFFGLQYTIKDTVAWLKMDKKVLDHDVSKEEPVTFHFLAKFYPENAEEELVQEITQHLFFLQVKKQILDEKIYCPPEASVLLASYAVQAKYGDYDPSVHKRGFLAQEELLPKRVINLYQMTPEMWEERITAWYAEHRGRARDEAEMEYLKIAQDLEMYGVNYFAIRNKKGTELLLGVDALGLHIYDPENRLTPKISFPWNEIRNISYSDKEFTIKPLDKKIDVFKFNSSKLRVNKLILQLCIGNHDLFMRRRKADSLEVQQMKAQAREEKARKQMERQRLAREKQMREEAERTRDELERRLLQMKEEATMANEALMRSEETADLLAEKAQITEEEAKLLAQKAAEAEQEMQRIKATAIRTEEEKRLMEQKVLEAEVLALKMAEESERRAKEADQLKQDLQEAREAERRAKQKLLEIATKPTYPPMNPIPAPLPPDIPSFNLIGDSLSFDFKDTDMKRLSMEIEKEKVEYMEKSKHLQEQLNELKTEIEALKLKERETALDILHNENSDRGGSSKHNTIKKLTLQSAKSRVAFFEEL
notes: Merlin isoform 1 without its unique N-terminal 18 amino acids; source: HEK 293T, co-transfected, in lysate; not shown: NanoLuc (probe copy) or EGFP (bait copy), C-terminal, kept
With B1, the “percent dimerization relative to wild type” value in data set [1] came out at 33%.

B2: Merlin L64P, patient derived mutant, P35240 1-595 (natural protein)
chain: T1 chain
Take B2: the fold dimerization relative to wild type in data set [2] is 1.28 fold.
